The test deals with T1, HA-tagged wild-type Erk2 (HA-Erk2, T188T or AA1-358) (mouse, UniProt P63085 1-358).
T1 construct: Mouse cDNA in a CMV expression plasmid, expressed in transfected cells; also called wt-Erk2; not shown: hemagglutinin (HA) tag
Description: co-precipitation of HA-tagged and Flag-tagged Erk2 after carbachol stimulation. The method, then: HEK293-cells were cultured in the absence or presence of carbachol (100 μM, 6 min) or UK14304 (1 μM, 10 min) before lysis. The inventors prepared ventricular tissue from mouse hearts derived from male 129SvEv (FIG. 1g,h), FVB/N wild-type (WT) or Erk2^T188-transgenic mice (1188T, T188D, T188S, T188A) (FVB/N background) without or after transverse aortic constriction (TAC, see Fig. legends for the duration of TAC) or carbachol-infusion. Control animals were strain-, age- and gender-matched. Lysates of ventricular tissue underwent sonification before immunoblot or immunoprecipitation assays.
FIG. 4 Activation of the entire MAPK-cascade is necessary for interaction of Gβγ with Erk1/2. […] (b) Gene silencing of Raf1 suppressed the carbachol-stimulated interaction of Erk1/2 with Gβ as assessed by co-immunoprecipitation with ERK1/2-specific antibodies (anti-ERK1/2). (c) Inhibition of Mek1/2-activity by PD98059 (50 μM) suppressed the carbachol-stimulated (CCH, 5 min) interaction of HA-Raf1 (Raf1) with Gβ as assessed by co-immunoprecipitation. […] (g, h) Interactions of HA-tagged wild-type Erk2 (AA1-358), truncated Erk2-mutants (AA1-318; AA22-358; AA22-318) and dimerization-deficient Erk2^Δ174-177 with Gβγ as assessed by co-immunoprecipition (g) and carbachol-stimulated inositol phosphate signaling (h) in HEK293-cells. […]

B1: Flag-Erk2^Δ174-177 (enzyme)
chain: MAAAAAAGPEMVRGQVFDVGPRYTNLSYIGEGAYGMVCSAYDNLNKVRVAIKKISPFEHQTYCQRTLREIKILLRFRHENIIGINDIIRAPTIEQMKDVYIVQDLMETDLYKLLKTQHLSNDHICYFLYQILRGLKYIHSANVLHRDLKPSNLLLNTTCDLKICDFGLARVADHTGFLTEYVATRWYRAPEIMLNSKGYTKSIDIWSVGCILAEMLSNRPIFPGKHYLDQLNHILGILGSPSQEDLNCIINLKARNYLLSLPHKNKVPWNRLFPNADSKALDLLDKMLTFNPHKRIEVEQALAHPYLEQYYDPSDEPIAEAPFKFDMELDDLPKEKLKELIFEETARFQPGYRS
notes: also called D174-177; dimerization-deficient Erk2^Δ174-177-mutant; not shown: Flag tag
As to B1, the binding result was “no binding”.

The record behind these values is patent US20110274694A1 (JULIUS MAXIMILIANS UNIVERSITAET WUERZBURG, published 2011).
